Assay results: PMC7117912

Key:
[1] = target: H2-D^b (mouse MHC I heavy chain ectodomain) refolded with human β2-microglobulin (mouse | human); experiment: SEC
[2] = target: HLA-A*02:01 (human MHC I heavy chain ectodomain, amino acids 1-278) refolded with human β2-microglobulin (human)
[3] = target: H2-D^b (mouse MHC I heavy chain ectodomain) refolded with human β2-microglobulin (mouse | human); experiment: fluorescence polarisation
[4] = target: HLA-A*02:01 (human MHC I heavy chain ectodomain, amino acids 1-278) refolded with human β2-microglobulin (human); experiment: fluorescence polarisation

“TAPBPR^Tsn-SL (human TAPBPR lumenal domain with the scoop loop replaced by the corresponding shorter loop of tapasin) (from UniProt Q9BX59 33-401) (domain or fragment)” gave a reduction of the amount of complex against TAPBPR^wt (SEC peak area) [1] of 40%, a dissociation rate constant of fluorescent peptide FLPSDC*FPSF from HLA-A*02:01 (300 nM) with 1 µM TAPBPR and 1000-fold excess of competitor peptide (uncatalyzed 1.90 × 10^-3 s^-1) [2] of 0.0263 s⁻¹ and a percent of fluorescent peptide released at 1 µM TAPBPR [3] of 12%.
“TAPBPR^wt (wildtype human TAP-binding protein-related, ER-lumenal domain) (from UniProt Q9BX59 33-401) (domain or fragment)” showed a dissociation rate constant of fluorescent peptide FLPSDC*FPSF from HLA-A*02:01 (300 nM) with 1 µM TAPBPR and 1000-fold excess of competitor peptide [2] of 0.0158 s⁻¹, a percent of fluorescent peptide released at 1 µM TAPBPR [3] of 60% and a percent of total MHC I-associated peptide dissociated at saturation (3 µM TAPBPR) [3] of 70%. It also gave a percent of total MHC I-associated peptide dissociated at saturation (3 µM TAPBPR) [4] of 80%.
Work on “TAPBPR^ΔSL (human TAPBPR lumenal domain with the scoop loop replaced by three glycine residues) (from UniProt Q9BX59 33-401) (domain or fragment)” yielded a reduction of the amount of complex against TAPBPR^wt (SEC peak area) [1] of 90% and a dissociation rate constant of fluorescent peptide FLPSDC*FPSF from HLA-A*02:01 (300 nM) with 1 µM TAPBPR and 1000-fold excess of competitor peptide [2] of 0.00852 s⁻¹.
